Results taken from doi:10.1101/2023.01.31.526478.

Molecular target: SNAP-SPIN1 (human) (UniProt Q9Y657)
Assay: FRET or BRET

Chain of UniProt Q9Y657 (Q9Y657 whole entry): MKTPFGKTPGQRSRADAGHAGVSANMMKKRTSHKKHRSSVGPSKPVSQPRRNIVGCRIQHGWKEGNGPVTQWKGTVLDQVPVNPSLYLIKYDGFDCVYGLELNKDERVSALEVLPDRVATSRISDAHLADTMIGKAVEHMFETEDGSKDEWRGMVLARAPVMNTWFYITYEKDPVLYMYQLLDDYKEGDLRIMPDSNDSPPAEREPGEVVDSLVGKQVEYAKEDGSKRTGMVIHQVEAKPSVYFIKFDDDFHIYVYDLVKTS

“Halo-WDR76 (from UniProt Q9H967 1-626) (natural protein)” was tested, and the FRET efficiency was 2%.
